# Results from paper PMC12311017.
# Biological target: USP1/UAF1 (USP1 res. 21-785, G670A + G671A, with UAF1 res. 9-677) (UniProt O94782)
# Assay: global kinetic model
# UniProt O94782, sequence (O94782 21-785 G670A/G671A, chain 1 of 2): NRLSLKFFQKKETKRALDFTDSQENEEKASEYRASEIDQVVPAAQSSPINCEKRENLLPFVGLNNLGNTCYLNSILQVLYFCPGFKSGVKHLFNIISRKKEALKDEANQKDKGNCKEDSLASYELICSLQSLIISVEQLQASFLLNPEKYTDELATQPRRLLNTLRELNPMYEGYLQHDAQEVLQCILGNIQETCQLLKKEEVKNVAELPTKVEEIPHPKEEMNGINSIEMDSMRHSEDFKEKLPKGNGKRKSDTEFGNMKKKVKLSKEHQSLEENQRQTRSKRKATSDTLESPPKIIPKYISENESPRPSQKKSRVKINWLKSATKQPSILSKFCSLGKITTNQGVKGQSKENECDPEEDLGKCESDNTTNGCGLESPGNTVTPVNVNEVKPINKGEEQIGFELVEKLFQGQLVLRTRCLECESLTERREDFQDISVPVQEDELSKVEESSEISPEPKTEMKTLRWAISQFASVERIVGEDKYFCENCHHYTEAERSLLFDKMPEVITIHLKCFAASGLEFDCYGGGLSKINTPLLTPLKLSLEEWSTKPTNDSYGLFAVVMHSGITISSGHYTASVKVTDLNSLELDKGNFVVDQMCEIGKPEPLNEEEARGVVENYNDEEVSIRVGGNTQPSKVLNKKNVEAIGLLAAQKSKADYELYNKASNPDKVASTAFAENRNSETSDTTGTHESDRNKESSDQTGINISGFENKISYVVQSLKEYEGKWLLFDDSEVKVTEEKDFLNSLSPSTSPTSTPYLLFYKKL
# UniProt O94782, sequence (Q8TAF3 9-677, chain 2 of 2, further chain): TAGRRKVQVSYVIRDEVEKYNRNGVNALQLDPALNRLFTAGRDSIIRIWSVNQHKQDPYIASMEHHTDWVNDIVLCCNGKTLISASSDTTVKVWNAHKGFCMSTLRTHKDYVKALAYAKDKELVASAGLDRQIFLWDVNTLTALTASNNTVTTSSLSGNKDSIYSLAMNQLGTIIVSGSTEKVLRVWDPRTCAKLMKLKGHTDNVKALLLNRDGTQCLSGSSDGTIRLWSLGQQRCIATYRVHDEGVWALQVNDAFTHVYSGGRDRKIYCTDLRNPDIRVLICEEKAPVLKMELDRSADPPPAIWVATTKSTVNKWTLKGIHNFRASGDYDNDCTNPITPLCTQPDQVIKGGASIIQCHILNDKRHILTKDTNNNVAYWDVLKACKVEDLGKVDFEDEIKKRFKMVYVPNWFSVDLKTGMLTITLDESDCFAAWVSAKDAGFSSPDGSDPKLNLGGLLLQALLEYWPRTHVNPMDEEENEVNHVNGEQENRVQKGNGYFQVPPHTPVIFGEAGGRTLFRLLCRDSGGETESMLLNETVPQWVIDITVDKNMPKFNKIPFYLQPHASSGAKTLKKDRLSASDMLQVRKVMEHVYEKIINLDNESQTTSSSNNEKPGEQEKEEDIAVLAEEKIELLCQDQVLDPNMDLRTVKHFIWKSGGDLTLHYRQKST
substance,measurement,value
K63-linked diubiquitinated PCNA (from UniProt P12004 1-261; P0CG47 1-76; P0CG47 1-76) (complex),koff,1240 s⁻¹
